Measured values from patent publication US20260116991A1 (HAINAN SIMCERE ZAIMING PHARMACEUTICAL, published 2026).
Changes are numbered by the printed parent chain. Values belong to the binder of their own block, whether it stands above or below them.

How the values were obtained:
monkey GPC3-His protein [1] = molecular target: T1, monkey GPC3-His protein (monkey); assay: ELISA, monkey GPC3-His coated; antibody 34.72 nM
T1 construct: Bought protein; also called monkey GPC3 protein
Experimental: (§1) The specific method is described as follows: The antigen protein was diluted with PBS to a final concentration of 1 μg/mL, and the diluent was added to a 96-well ELISA plate at 50 μL/well. The plate was sealed with a plastic film and incubated at 4° C. overnight, washed twice with PBS the next day, and a blocking solution [PBS+2% (w/w) BSA] was added for blocking at room temperature for 2 h. […] After incubation at 37° C. for 2 h, the plate was washed 3 times with PBS. A horseradish peroxidase (HRP)-labeled secondary antibody (purchased from Merck, Cat. No. AP113P) was added for incubation at 37° C. for 1 h, and the plate was washed 5 times with PBS. A TMB substrate was added at 50 μL/well for incubation at room temperature for 10 min, then a stop solution (1.0M HCl) was added at 50 μL/well.

monkey GPC3-His protein [2] = molecular target: T1, monkey GPC3-His protein; assay: ELISA, monkey GPC3-His coated; antibody 0.056 nM
Experimental: as §1

monkey GPC3-His protein [3] = molecular target: T1, monkey GPC3-His protein; assay: ELISA, monkey GPC3-His coated; antibody 0.011 nM
Experimental: as §1

monkey GPC3-His protein [4] = molecular target: T1, monkey GPC3-His protein; assay: ELISA, monkey GPC3-His coated; antibody 0.0004 nM
Experimental: as §1

monkey GPC3-His protein [5] = molecular target: T1, monkey GPC3-His protein; assay: ELISA, monkey GPC3-His coated; antibody 1.39 nM
Experimental: as §1

monkey GPC3-His protein [6] = molecular target: T1, monkey GPC3-His protein; assay: ELISA, monkey GPC3-His coated; antibody 0.28 nM
Experimental: as §1

monkey GPC3-His protein [7] = molecular target: T1, monkey GPC3-His protein; assay: ELISA, monkey GPC3-His coated; antibody 0.002 nM
Experimental: as §1

GPC3 on HepG2 cells = molecular target: T2, GPC3 on HepG2 cells (human, UniProt P51654 25-554); assay: FACS on HepG2 cells
T2 construct: whole, on cells; also called glypican-3

monkey GPC3-His protein [8] = molecular target: T1, monkey GPC3-His protein; assay: ELISA, monkey GPC3-His coated; antibody 6.94 nM
Experimental: as §1

monkey GPC3-His protein [9] = molecular target: T1, monkey GPC3-His protein; assay: ELISA, monkey GPC3-His coated; antibody 0.11 nM
Experimental: as §1

murine GPC3-his protein [10] = molecular target: T3, murine GPC3-his protein (murine, UniProt Q8CFZ4 25-558, limits assumed); assay: ELISA, murine GPC3-his coated; antibody 0.0008 nM
T3 construct: Bought protein; also called mouse GPC3 protein; murine GPC3 protein; not shown: His tag

monkey GPC3-His protein [11] = molecular target: T1, monkey GPC3-His protein; assay: ELISA, monkey GPC3-His coated; antibody 0.0008 nM
Experimental: as §1

murine GPC3-his protein [12] = molecular target: T3, murine GPC3-his protein; assay: ELISA, murine GPC3-his coated; antibody 0.02 nM
Experimental: as §1

murine GPC3-his protein [13] = molecular target: T3, murine GPC3-his protein; assay: ELISA, murine GPC3-his coated; antibody 66.66 nM
Experimental: as §1

murine GPC3-his protein [14] = molecular target: T3, murine GPC3-his protein; assay: ELISA, murine GPC3-his coated; antibody 0.004 nM
Experimental: as §1

monkey GPC3-His protein [15] = molecular target: T1, monkey GPC3-His protein; assay: ELISA, monkey GPC3-His coated; antibody 0.004 nM
Experimental: as §1

monkey GPC3-His protein [16] = molecular target: T1, monkey GPC3-His protein; assay: ELISA, monkey GPC3-His coated; antibody 2.67 nM
Experimental: as §1

monkey GPC3-His protein [17] = molecular target: T1, monkey GPC3-His protein; assay: ELISA, monkey GPC3-His coated; antibody 0.53 nM
Experimental: as §1

monkey GPC3-His protein [18] = molecular target: T1, monkey GPC3-His protein; assay: ELISA, monkey GPC3-His coated; antibody 66.66 nM
Experimental: as §1

murine GPC3-his protein [19] = molecular target: T3, murine GPC3-his protein; assay: ELISA, murine GPC3-his coated; antibody 0.53 nM
Experimental: as §1

murine GPC3-his protein [20] = molecular target: T3, murine GPC3-his protein; assay: ELISA, murine GPC3-his coated; antibody 0.11 nM
Experimental: as §1

murine GPC3-his protein [21] = molecular target: T3, murine GPC3-his protein; assay: ELISA, murine GPC3-his coated; antibody 2.67 nM
Experimental: as §1

murine GPC3-his protein [22] = molecular target: T3, murine GPC3-his protein; assay: ELISA, murine GPC3-his coated; antibody 13.33 nM
Experimental: as §1

monkey GPC3-His protein [23] = molecular target: T1, monkey GPC3-His protein; assay: ELISA, monkey GPC3-His coated; antibody 0.02 nM
Experimental: as §1

monkey GPC3-His protein [24] = molecular target: T1, monkey GPC3-His protein; assay: ELISA, monkey GPC3-His coated; antibody 13.33 nM
Experimental: as §1

T3 sequence (Q8CFZ4 25-558 limits assumed): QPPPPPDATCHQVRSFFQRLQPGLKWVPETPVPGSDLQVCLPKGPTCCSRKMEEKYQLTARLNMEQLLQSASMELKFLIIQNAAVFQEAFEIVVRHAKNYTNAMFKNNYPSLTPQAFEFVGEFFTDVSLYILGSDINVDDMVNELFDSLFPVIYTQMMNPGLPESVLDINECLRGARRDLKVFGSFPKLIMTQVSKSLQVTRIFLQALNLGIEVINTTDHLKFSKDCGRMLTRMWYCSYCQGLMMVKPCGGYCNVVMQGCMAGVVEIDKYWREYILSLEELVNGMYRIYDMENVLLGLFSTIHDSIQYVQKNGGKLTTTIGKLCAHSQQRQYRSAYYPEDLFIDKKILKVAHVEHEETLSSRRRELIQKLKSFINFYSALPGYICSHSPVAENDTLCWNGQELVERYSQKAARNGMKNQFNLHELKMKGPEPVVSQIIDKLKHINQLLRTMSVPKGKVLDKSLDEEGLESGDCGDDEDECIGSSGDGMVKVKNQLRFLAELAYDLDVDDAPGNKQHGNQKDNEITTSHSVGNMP

B3: hAb001H2L1b (antibody, human IgG1, V domains shown)
VH: EVQLVESGGGLVQPGGSLRLSCAASGFSFNTNAMNWVRQAPGKGLEWVGRIRSKSNNYATYYADSVKDRFTISRDDSKSSLYLQMNSLKTEDTAVYYCVRDGYYVLFAYWGQGTLVTVSS
VL: DIVMTQTPLSLPVTPGEPASISCRFSQSIVNSNANTYLEWFLQKPGQSPQLLIYKVSNRFSGVPDRFSGSGSGTDFTLKISRVEAEDVGVYYCFQGSHVPFTFGQGTKLEIK
notes: Humanized F2.169.2, H2+L1b
OD450 nm (monkey GPC3-His protein [9]): 1.93
OD450 nm (murine GPC3-his protein [10]): 0.199
OD450 nm (monkey GPC3-His protein [11]): 0.143
OD450 nm (murine GPC3-his protein [12]): 1.09
OD450 nm (murine GPC3-his protein [13]): 2.64
OD450 nm (murine GPC3-his protein [14]): 0.407
OD450 nm (monkey GPC3-His protein [15]): 0.317
OD450 nm (monkey GPC3-His protein [16]): 2.45
OD450 nm (monkey GPC3-His protein [17]): 2.54
OD450 nm (monkey GPC3-His protein [18]): 2.58
OD450 nm (murine GPC3-his protein [19]): 2.38
OD450 nm (murine GPC3-his protein [20]): 2.06
OD450 nm (murine GPC3-his protein [21]): 2.44
OD450 nm (murine GPC3-his protein [22]): 2.58
OD450 nm (monkey GPC3-His protein [23]): 0.865
OD450 nm (monkey GPC3-His protein [24]): 2.47

B4: hAb007LH1L1d (antibody, human IgG1, V domains shown)
VH: EVQLVQSGAEVKKPGSSVKVSCKASGYTFSDYEMHWVRQAPGQGLEWMGTIDPETGNTAYNQKFKGRVTITADKSTSTAYMELSSLRSEDTAVYYCTRPYSLTYWGQGTLVTVSS
VL: B3 VL with F25S, I29F, N31H, A34S, N35D, E39Q, F41Y, F101Y
notes: Humanized F3.81.19, H1+L1d
OD450 nm (monkey GPC3-His protein [1]): 1.25
OD450 nm (monkey GPC3-His protein [2]): 0.235
OD450 nm (monkey GPC3-His protein [3]): 0.09
OD450 nm (monkey GPC3-His protein [4]): 0.053
OD450 nm (monkey GPC3-His protein [5]): 1.2
OD450 nm (monkey GPC3-His protein [6]): 0.752
OD450 nm (monkey GPC3-His protein [7]): 0.078
EC50 (GPC3 on HepG2 cells): 4.39 nM
Max MFI (GPC3 on HepG2 cells): 3830
OD450 nm (monkey GPC3-His protein [8]): 1.3

B6: hAb007LH1L1e (antibody, human IgG1, V domains shown)
VH: B4 VH
VL: B3 VL with F25S, I29F, N31H, A34V, N35D, E39Q, F41Y, F101Y
notes: Humanized F3.81.19, H1+L1e
OD450 nm (monkey GPC3-His protein [1]): 1.14
OD450 nm (monkey GPC3-His protein [2]): 0.148
OD450 nm (monkey GPC3-His protein [3]): 0.14
OD450 nm (monkey GPC3-His protein [4]): 0.043
OD450 nm (monkey GPC3-His protein [5]): 0.848
OD450 nm (monkey GPC3-His protein [6]): 0.399
OD450 nm (monkey GPC3-His protein [7]): 0.148
EC50 (GPC3 on HepG2 cells): 10.1 nM
Max MFI (GPC3 on HepG2 cells): 2910
OD450 nm (monkey GPC3-His protein [8]): 1.17

B7: hAb001H2L1a (antibody, human IgG1, V domains shown)
VH: B3 VH
VL: B3 VL with N33D, A34G
notes: Humanized F2.169.2, H2+L1a
OD450 nm (monkey GPC3-His protein [9]): 1.13
OD450 nm (murine GPC3-his protein [10]): 0.094
OD450 nm (monkey GPC3-His protein [11]): 0.063
OD450 nm (murine GPC3-his protein [12]): 0.664
OD450 nm (murine GPC3-his protein [13]): 2.48
OD450 nm (murine GPC3-his protein [14]): 0.191
OD450 nm (monkey GPC3-His protein [15]): 0.094
OD450 nm (monkey GPC3-His protein [16]): 2.25
OD450 nm (monkey GPC3-His protein [17]): 2.02
OD450 nm (monkey GPC3-His protein [18]): 2.22
OD450 nm (murine GPC3-his protein [19]): 2.19
OD450 nm (murine GPC3-his protein [20]): 1.59
OD450 nm (murine GPC3-his protein [21]): 2.35
OD450 nm (murine GPC3-his protein [22]): 2.41
OD450 nm (monkey GPC3-His protein [23]): 0.34
OD450 nm (monkey GPC3-His protein [24]): 2.34

Further binders by falling EC50 (GPC3 on HepG2 cells), results first:

OD450 nm (monkey GPC3-His protein [1]): 1.25
OD450 nm (monkey GPC3-His protein [2]): 0.268
OD450 nm (monkey GPC3-His protein [3]): 0.103
OD450 nm (monkey GPC3-His protein [4]): 0.05
OD450 nm (monkey GPC3-His protein [5]): 1.3
OD450 nm (monkey GPC3-His protein [6]): 0.744
OD450 nm (monkey GPC3-His protein [7]): 0.069
EC50 (GPC3 on HepG2 cells): 3.67 nM
Max MFI (GPC3 on HepG2 cells): 3770
OD450 nm (monkey GPC3-His protein [8]): 1.26
B8: hAb007LH1L1c (antibody, human IgG1, V domains shown)
VH: B4 VH
VL: B3 VL with F25S, I29F, N31H, N35D, E39Q, F41Y, F101Y
notes: Humanized F3.81.19, H1+L1c

OD450 nm (monkey GPC3-His protein [1]): 1.26
OD450 nm (monkey GPC3-His protein [2]): 0.67
OD450 nm (monkey GPC3-His protein [3]): 0.24
OD450 nm (monkey GPC3-His protein [4]): 0.066
OD450 nm (monkey GPC3-His protein [5]): 1.07
OD450 nm (monkey GPC3-His protein [6]): 1.14
OD450 nm (monkey GPC3-His protein [7]): 0.114
EC50 (GPC3 on HepG2 cells): 1.01 nM
Max MFI (GPC3 on HepG2 cells): 2780
OD450 nm (monkey GPC3-His protein [8]): 1.22
B2: hAb006LH3L1e (antibody, human IgG1, V domains shown)
VH: B4 VH with S30T, M34I, T50A, E54K, K65M, I70L, P99Y, Y100F, L102F, T103A
VL: B3 VL with F25S, S28T, I29F, N31H, A34V, E39Q, F41Y, F101Y
notes: Humanized F3.38.7, H3+L1e

OD450 nm (monkey GPC3-His protein [1]): 1.3
OD450 nm (monkey GPC3-His protein [2]): 0.719
OD450 nm (monkey GPC3-His protein [3]): 0.308
OD450 nm (monkey GPC3-His protein [4]): 0.068
OD450 nm (monkey GPC3-His protein [5]): 1.28
OD450 nm (monkey GPC3-His protein [6]): 1.1
OD450 nm (monkey GPC3-His protein [7]): 0.121
EC50 (GPC3 on HepG2 cells): 0.772 nM
Max MFI (GPC3 on HepG2 cells): 3500
OD450 nm (monkey GPC3-His protein [8]): 1.29
B5: hAb006LH3L1d (antibody, human IgG1, V domains shown)
VH: B4 VH with S30T, M34I, T50A, E54K, K65M, I70L, P99Y, Y100F, L102F, T103A
VL: B3 VL with F25S, S28T, I29F, N31H, A34S, E39Q, F41Y, F101Y
notes: Humanized F3.38.7, H3+L1d

OD450 nm (monkey GPC3-His protein [1]): 1.26
OD450 nm (monkey GPC3-His protein [2]): 0.876
OD450 nm (monkey GPC3-His protein [3]): 0.332
OD450 nm (monkey GPC3-His protein [4]): 0.071
OD450 nm (monkey GPC3-His protein [5]): 1.32
OD450 nm (monkey GPC3-His protein [6]): 1.24
OD450 nm (monkey GPC3-His protein [7]): 0.122
EC50 (GPC3 on HepG2 cells): 0.417 nM
Max MFI (GPC3 on HepG2 cells): 3520
OD450 nm (monkey GPC3-His protein [8]): 1.33
B1: hAb006LH3L1c (antibody, human IgG1, V domains shown)
VH: B4 VH with S30T, M34I, T50A, E54K, K65M, I70L, P99Y, Y100F, L102F, T103A
VL: B3 VL with F25S, S28T, I29F, N31H, A34R, E39Q, F41Y, F101Y
notes: Humanized F3.38.7, H3+L1c
